T1: mouse CD117 (mouse, UniProt P05532)
T1 construct: antigen of the Carterra SPR kinetics; also called murine CD117
T1 sequence (receptor, looked up): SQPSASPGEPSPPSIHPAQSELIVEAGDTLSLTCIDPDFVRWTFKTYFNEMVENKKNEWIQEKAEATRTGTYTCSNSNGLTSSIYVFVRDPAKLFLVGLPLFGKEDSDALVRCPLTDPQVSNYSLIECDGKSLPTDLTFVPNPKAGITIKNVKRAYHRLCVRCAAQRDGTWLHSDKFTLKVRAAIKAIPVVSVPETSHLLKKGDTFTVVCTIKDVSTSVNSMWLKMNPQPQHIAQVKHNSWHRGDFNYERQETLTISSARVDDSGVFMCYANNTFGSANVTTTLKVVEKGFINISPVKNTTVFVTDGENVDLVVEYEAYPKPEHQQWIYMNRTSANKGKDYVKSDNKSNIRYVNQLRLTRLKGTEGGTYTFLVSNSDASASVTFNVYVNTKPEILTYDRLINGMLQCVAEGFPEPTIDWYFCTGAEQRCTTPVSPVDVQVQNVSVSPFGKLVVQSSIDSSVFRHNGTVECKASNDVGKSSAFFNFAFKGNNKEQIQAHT


Assays:
[1] = biological target: T2, CD117 transiently expressed on Expi293 cells (UniProt P10721 26-976, limits assumed); assay: FACS cell binding, Expi293 transiently expressing CD117
T2 construct: whole, on cells; Two cassettes are described (P2A mVenus and direct mVenus fusion); also called CD117 transient cells; the transient cell line
Procedure: (§1) The transient expression of CD117 was validated with a control antibody, Expi293 (FIGS. 17A-17B). Expi293, […], was transiently transfected with CD117 48-hours post-transfection. The secondary antibody used was APC Goat anti-human IgG (diluted 1:400). 100,000 cells per well were blocked with 1×PBS+0.5% BSA for 1 hour, stained with 100 μL of the primary antibody for 1 hour, and stained with the secondary antibody for one hour, all with 3× washes in between each staining.

[2] = biological target: T3, Cluster of differentiation 117 (CD117), antigen of epitope binning and ELISA (UniProt P10721 26-520, limits assumed); assay: Carterra SPR, human CD117
T3 construct: also called tyrosine-protein kinase KIT; mast/stem cell growth factor receptor (SCFR)
Procedure: (§2) To further evaluate the antibodies discovered during the screens, 21 clones were selected for detailed characterization and were analyzed for target binding kinetics by a Carterra SPR instrument. The binding kinetics of the anti-CD117 antibodies for human CD117, cynomolgus monkey CD117, and murine CD117 are shown in FIG. 29A-29B.

[3] = biological target: T2, CD117 transiently expressed on Expi293 …; assay: FACS, MFI expressing / parental cells
Procedure: as §1

[4] = biological target: T4, Sialic acid-binding immunoglobulin-like lectin 8 (SIGLEC-8), antigen of the Carterra SPR studies (UniProt Q9NYZ4 17-363, limits assumed); assay: Carterra SPR kinetics, summary table
How it was run: (§3)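 On a Carterra instrument, surface plasmon resonance was used to measure how antibodies bind SIGLEC-8, with rate constants and dissociation constants as read-outs. The antibodies were taken from synthetic libraries by bead-based panning and clonal ELISA screening, then expressed and purified.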

[5] = biological target: T5, SIGLEC-8 transiently expressed on cells (UniProt Q9NYZ4 17-499, limits assumed); assay: cell binding titration, transient SIGLEC-8 line
T5 construct: whole, on cells; Two cassettes are described (P2A mVenus and direct mVenus fusion); also called the transient line; pTT5-SIGLEC-8 P2A mVenus

[6] = biological target: T4, Sialic acid-binding immunoglobulin-like …; assay: Carterra SPR
How it was run: as §3

mouse CD117 = biological target: T1, mouse CD117; assay: Carterra SPR, mouse CD117
Procedure: as §2

T4 sequence (Q9NYZ4 17-363 limits assumed): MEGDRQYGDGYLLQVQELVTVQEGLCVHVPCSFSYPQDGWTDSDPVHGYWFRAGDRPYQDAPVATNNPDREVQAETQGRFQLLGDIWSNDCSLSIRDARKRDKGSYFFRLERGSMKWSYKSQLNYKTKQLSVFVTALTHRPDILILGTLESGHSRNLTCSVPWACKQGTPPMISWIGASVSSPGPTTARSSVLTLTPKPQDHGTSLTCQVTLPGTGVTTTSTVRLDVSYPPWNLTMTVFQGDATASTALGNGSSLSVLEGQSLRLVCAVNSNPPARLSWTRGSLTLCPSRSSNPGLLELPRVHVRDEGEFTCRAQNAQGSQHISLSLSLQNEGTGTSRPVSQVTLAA
T5 sequence (Q9NYZ4 17-499 limits assumed): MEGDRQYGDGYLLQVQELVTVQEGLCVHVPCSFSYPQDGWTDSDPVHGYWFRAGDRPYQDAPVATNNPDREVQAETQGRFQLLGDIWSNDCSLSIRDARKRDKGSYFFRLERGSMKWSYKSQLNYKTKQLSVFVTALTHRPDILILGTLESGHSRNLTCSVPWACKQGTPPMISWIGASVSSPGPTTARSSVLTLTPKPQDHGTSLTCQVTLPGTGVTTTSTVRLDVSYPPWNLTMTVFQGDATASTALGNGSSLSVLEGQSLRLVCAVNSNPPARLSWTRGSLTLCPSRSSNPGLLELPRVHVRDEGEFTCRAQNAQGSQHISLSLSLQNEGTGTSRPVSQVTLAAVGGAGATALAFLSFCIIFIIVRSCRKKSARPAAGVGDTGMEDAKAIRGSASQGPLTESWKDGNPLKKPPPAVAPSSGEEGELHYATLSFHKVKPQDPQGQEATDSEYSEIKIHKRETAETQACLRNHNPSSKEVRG
T2 sequence (P10721 26-976 limits assumed): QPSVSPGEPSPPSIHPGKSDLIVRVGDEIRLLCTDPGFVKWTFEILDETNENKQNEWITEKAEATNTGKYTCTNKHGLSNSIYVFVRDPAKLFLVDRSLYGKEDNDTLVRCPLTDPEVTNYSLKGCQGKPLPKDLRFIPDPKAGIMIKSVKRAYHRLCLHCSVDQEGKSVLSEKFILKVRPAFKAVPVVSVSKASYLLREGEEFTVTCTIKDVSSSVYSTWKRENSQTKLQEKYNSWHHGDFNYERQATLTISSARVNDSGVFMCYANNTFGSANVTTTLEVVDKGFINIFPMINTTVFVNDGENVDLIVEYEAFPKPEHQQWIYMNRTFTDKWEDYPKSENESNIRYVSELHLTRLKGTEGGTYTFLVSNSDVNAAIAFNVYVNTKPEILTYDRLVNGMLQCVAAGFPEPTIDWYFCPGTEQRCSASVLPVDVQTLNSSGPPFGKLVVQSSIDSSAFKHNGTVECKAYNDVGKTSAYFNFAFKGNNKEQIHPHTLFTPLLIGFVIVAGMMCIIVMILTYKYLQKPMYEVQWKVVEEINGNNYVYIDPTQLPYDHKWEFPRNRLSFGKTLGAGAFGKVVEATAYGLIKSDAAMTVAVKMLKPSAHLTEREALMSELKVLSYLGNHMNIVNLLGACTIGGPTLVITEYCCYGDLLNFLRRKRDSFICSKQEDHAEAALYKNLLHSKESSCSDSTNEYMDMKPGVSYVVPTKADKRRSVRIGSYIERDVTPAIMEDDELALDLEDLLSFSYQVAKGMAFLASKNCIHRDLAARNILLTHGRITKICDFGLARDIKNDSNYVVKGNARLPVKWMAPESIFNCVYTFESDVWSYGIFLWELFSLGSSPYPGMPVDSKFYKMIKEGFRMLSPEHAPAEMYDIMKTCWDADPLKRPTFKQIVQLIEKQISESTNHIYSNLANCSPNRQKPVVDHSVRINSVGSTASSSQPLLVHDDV
T3 sequence (P10721 26-520 limits assumed): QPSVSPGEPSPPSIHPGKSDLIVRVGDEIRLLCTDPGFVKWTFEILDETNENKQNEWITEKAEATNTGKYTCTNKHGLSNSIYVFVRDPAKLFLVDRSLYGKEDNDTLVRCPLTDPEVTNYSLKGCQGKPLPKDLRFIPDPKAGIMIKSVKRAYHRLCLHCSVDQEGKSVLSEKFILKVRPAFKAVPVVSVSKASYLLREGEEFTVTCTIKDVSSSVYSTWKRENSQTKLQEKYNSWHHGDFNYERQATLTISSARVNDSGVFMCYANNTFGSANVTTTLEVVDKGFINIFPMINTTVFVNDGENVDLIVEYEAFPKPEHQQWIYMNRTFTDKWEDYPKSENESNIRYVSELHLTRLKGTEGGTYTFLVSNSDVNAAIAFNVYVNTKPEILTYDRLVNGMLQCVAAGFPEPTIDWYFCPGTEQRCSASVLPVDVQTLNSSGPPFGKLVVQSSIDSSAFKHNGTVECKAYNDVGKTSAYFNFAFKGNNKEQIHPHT

Binder | EC50 [1] [nM] | binding result [2] | MFI Ratio [3] | koff [4] [s⁻¹] | kon [4] [M⁻¹ s⁻¹] | EC50 [5] [nM] | Kd [6] [nM] | binding result (mouse CD117)
SIGLEC-8-45 (antibody, human IgG1, kappa, V domains shown, tested as expressed and purified mAb) VH: EVQLLESGGGLVQPGGSLRLSCAASGFTFSSGAMSWVRQAPGKGLEWVSTISGSGASTYYADSVKGRFTISRDNSKNTLYLQMNSLRAEDTAVYYCAREGSSSWNAFDIWGQGTLVTVSS VL: DIQMTQSPSSLSASVGDRVTITCRASQTIANYLNWYQQKPGKAPKLLIYAASNLEDGVPSRFSGSGSGTDFTLTISSLQPEDFATYYCQQSYNTPITFGGGTKVEIKR |  |  |  | 8.37e-05 | 146000 | 1.81 | 0.574 | 
CD117-3 (antibody, human IgG1, kappa, V domains shown, detected with anti-human IgG in FACS) VH: EVQLLESGGGLVQPGGSLRLSCAASGFSFSSYAMSWVRQAPGKGLEWVSAISGTGGNTYYADSVKGRFTISRDNSKNTLYLQMNSLRAEDTAVYYCARRNDFWSDAFDIWGQGTLVTVSS VL: DIQMTQSPSSLSASVGDRVTITCRASQNIYTYLNWYQQKPGKAPKLLIYDASSLHSGVPSRFSGSGSGTDFTLTISSLQPEDFATYYCQQSSSTPYTFGGGTKVEIKR |  |  |  |  |  |  |  | no binding
SIGLEC-8-53 (antibody, human IgG1, kappa, V domains shown, tested as expressed and purified mAb) VH: EVQLLESGGGLVQPGGSLRLSCAASGFTFSSSAMAWVRQAPGKGLEWVSEISDSGGSTYYADSVKGRFTISRDNSKNTLYLQMNSLRAEDTAVYYCAREESGKYLSLDHWGQGTLVTVSS VL: DIQMTQSPSSLSASVGDRVTITCRASQTIINYLNWYQQKPGKAPKLLIYGASNVQSGVPSRFSGSGSGTDFTLTISSLQPEDFATYYCQQSYVTPPTFGGGTKVEIKR |  |  |  | 4.78e-05 | 259000 | 0.69 | 0.185 | 
CD117-15 (antibody, human IgG1, kappa, V domains shown, detected with anti-human IgG in FACS) VH: EVQLLESGGGLVQPGGSLRLSCAASGFTFSDYPMSWVRQAPGKGLEWVSAIGGSGGDTYYADSVKGRFTISRDNSKNTLYLQMNSLRAEDTAVYYCARGAYDGEGFDYWGQGTLVTVSS VL: DIQMTQSPSSLSASVGDRVTITCRTSQSIGSYLNWYQQKPGKAPKLLIYSASRLESGVPSRFSGSGSGTDFTLTISSLQPEDFATYYCQQTYNTPWTFGGGTKVEIKR |  |  |  |  |  |  |  | no binding
SIGLEC-8-61 (antibody, human IgG1, kappa, V domains shown, tested as expressed and purified mAb; also called SIGLEC-61) VH: EVQLLESGGGLVQPGGSLRLSCAASGFTFSSSAMTWVRQAPGKGLEWVTAISESGGSTYYADSVKGRFTISRDNSKNTLYLQMNSLRAEDTAVYYCAREGGDYYYGIDVWGQGTLVTVSS VL: DIQMTQSPSSLSASVGDRVTITCRAGQSINRYLNWYQQKPGKAPKLLIYGASNLQSGVPSRFSGSGSGTDFTLTISSLQPEDFATYYCQQSFTTPLTFGGGTKVEIKR |  |  |  | 3.67e-05 | 390000 | 0.494 | 0.0942 | 
SIGLEC-8-60 (antibody, human IgG1, kappa, V domains shown, tested as expressed and purified mAb) VH: EVQLLESGGGLVQPGGSLRLSCAASGFTLSNYAMTWVRQAPGKGLEWVSTVSGSGASTYYADSVKGRFTISRDNSKNTLYLQMNSLRAEDTAVYYCARENSGKYLSLDYWGQGTLVTVSS VL: DIQMTQSPSSLSASVGDRVTITCRASQNIASYLNWYQQKPGKAPKLLIYATSDLQSGVPSRFSGSGSGTDFTLTISSLQPEDFATYYCQQTYNIPLTFGGGTKVEIKR |  |  |  | 0.000116 | 129000 | 0.653 | 0.895 | 
SIGLEC-8-52 (antibody, human IgG1, kappa, V domains shown, tested as expressed and purified mAb) VH: EVQLLESGGGLVQPGGSLRLSCAASGFTFRSYVMSWVRQAPGKGLEWVSSISLSGGSTYYADSVKGRFTISRDNSKNTLYLQMNSLRAEDTAVYYCAREESGKYLSLDHWGQGTLVTVSS VL: DIQMTQSPSSLSASVGDRVTITCRASQSVSNFLNWYQQKPGKAPKLLIYAASNLEGGVPSRFSGSGSGTDFTLTISSLQPEDFATYYCQQTYSTPITFGGGTKVEIKR |  |  |  | 6.22e-05 | 84900 | 4.07 | 0.733 | 
SIGLEC-8-4 (antibody, human IgG1, kappa, V domains shown, tested as expressed and purified mAb) VH: EVQLLESGGGLVQPGGSLRLSCAASGFSFSSDAMSWVRQAPGKGLEWVSGISGGGGSAYYADSVKGRFTISRDNSKNTLYLQMNSLRAEDTAVYYCAREGASNYAAFDIWGQGTLVTVSS VL: DIQMTQSPSSLSASVEDRVTITCRAGQSITPYLNWYQQKPGKAPKLLIYATSSLHSGVPSRFSGSGSGTDFTLTISSLQPEDFATYYCQQSHSSPLTFGGGTKVEIKR |  |  |  | 3.12e-05 | 165000 | 2.38 | 0.189 | 

Second part, the binder after the results:

EC50 [1] [nM] | binding result [2] | MFI Ratio [3] | koff [4] [s⁻¹] | kon [4] [M⁻¹ s⁻¹] | EC50 [5] [nM] | Kd [6] [nM] | binding result (mouse CD117) | Binder
351 | no binding | 4.25 |  |  |  |  |  | CD117-8 (antibody, human IgG1, kappa, V domains shown, detected with anti-human IgG in FACS) VH: EVQLLESGGGLVQPGGSLRLSCAASGFTLTSYAMSWVRQAPGKGLEWVSTISGSGGYTYYADSVKGRFTISRDNSKNTLYLQMNSLRAEDTAVYYCARDSGYDRGLDYWGQGTLVTVSS VL: DIQMTQSPSSLSASVGDRVTITCRASQSVRTYLNWYQQKPGKAPKLLIYDASTLQSGVPSRFSGSGSGTDFTLTISSLQPEDFATYYCQQSYNTPLAFGGGTKVEIKR
 |  |  |  |  | 3.01 | 1.61 |  | SIGLEC-8-55 (antibody, human IgG1, kappa, V domains shown, tested as expressed and purified mAb; also called SIGLEC-55) VH: EVQLLESGGGLVQPGGSLRLSCAASGFTFDDYAMSWVRQAPGKGLEWVSYISGSGGSTYYADSVKGRFTISRDNSKNTLYLQMNSLRAEDTAVYYCAKYRRYDSGLGGFDYWGQGTLVTVSS VL: DIQMTQSPSSLSASVGDRVTITCRASRSIDTYLNWYQQKPGKAPKLLIYDASTLQGGVPSRFSGSGSGTDFTLTISSLQPEDFATYYCQQSYVTPPTFGGGTKVEIKR
 |  |  | 5.63e-05 | 152000 | 1.33 | 0.37 |  | SIGLEC-8-31 (antibody, human IgG1, kappa, V domains shown, tested as expressed and purified mAb) VH: EVQLLESGGGLVQPGGSLRLSCAASGFTFSTDAMSWVRQAPGKGLEWVSTVSGSGASTYYADSVKGRFTISRDNSKNTLYLQMNSLRAEDTAVYYCAREDSGKYLSLDYWGQGTLVTVSS VL: DIQMTQSPSSLSASVGDRVTITCRASQSITNYLNWYQQKPGKAPKLLIYASSTLESGVPSRFSGSGSGTDFTLTISSLQPEDFATYYCQQSYITPLTFGGGTKVEIKR
 |  |  | 3.4e-05 | 445000 | 0.972 | 0.0764 |  | SIGLEC-8-20 (antibody, human IgG1, kappa, V domains shown, tested as expressed and purified mAb) VH: EVQLLESGGGLVQPGGSLRLSCAASGFTFSSFDMTWVRQAPGKGLEWVSSISGGGGSTYYADSVKGRFTISRDNSKNTLYLQMNSLRAEDTAVYYCAREDGSGSYSMDVWGQGTLVTVSS VL: DIQMTQSPSSLSASVGDRVTITCRASQSIDNYLHWYQQKPGKAPKLLIYAASNLEGGVPSRFSGSGSGTDFTLTISSLQPEDFATYYCQQSYKTPVTFGGGTKVEIKR
 |  |  | 0.000124 | 145000 | 1.5 | 0.856 |  | SIGLEC-8-30 (antibody, human IgG1, kappa, V domains shown, tested as expressed and purified mAb) VH: EVQLLESGGGLVQPGGSLRLSCAASGFTFSHYALSWVRQAPGKGLEWVSIISGSGDTTYYADSVKGRFTISRDNSKNTLYLQMNSLRAEDTAVYYCAKATYFYDSSGYRRATYFDYWGQGTLVTVSS VL: DIQMTQSPSSLSASVGDRVTITCRASQGISRHLNWYQQKPGKAPKLLIYAESTLQSGVPSRFSGSGSGTDFTLTISSLQPEDFATYYCQQTYTLPYTFGGGTKVEIKR
 |  |  |  |  | 0.939 | 31.2 |  | SIGLEC-8-59 (antibody, human IgG1, kappa, V domains shown, tested as expressed and purified mAb) VH: EVQLLESGGGLVQPGGSLRLSCAASGFTFTSYAVSWVRQAPGKGLEWVSSISGSGGSAYYADSVKGRFTISRDNSKNTLYLQMNSLRAEDTAVYYCARDTVGYGMDVWGQGTLVTVSS VL: DIQMTQSPSSLSASVGDRVTITCRASQTISGYLSWYQQKPGKAPKLLIYSASRLHSGVPSRFSGSGSGTDFTLTISSLQPEDFATYYCQQGYSTPLTFGGGTKVEIKR
